Article PMC9136605

Biological target: human lactate dehydrogenase C (LDHC), recombinant wild type with C-terminal His6-tag (human) (UniProt P07864)

Chain of human lactate dehydrogenase C (LDHC), recombinant wild type with C-terminal His6-tag (P07864 whole entry): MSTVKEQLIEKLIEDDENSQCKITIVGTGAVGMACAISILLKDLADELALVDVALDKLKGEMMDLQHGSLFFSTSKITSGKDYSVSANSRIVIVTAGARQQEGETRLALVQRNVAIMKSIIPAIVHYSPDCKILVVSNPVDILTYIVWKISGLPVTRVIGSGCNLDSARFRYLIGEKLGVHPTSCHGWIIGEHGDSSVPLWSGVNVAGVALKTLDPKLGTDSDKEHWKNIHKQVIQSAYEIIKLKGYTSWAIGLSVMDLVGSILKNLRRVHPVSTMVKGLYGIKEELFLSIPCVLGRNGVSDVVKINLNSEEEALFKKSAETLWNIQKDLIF

Substance: human lactate dehydrogenase C (LDHC), recombinant wild type with C-terminal His6-tag (from UniProt P07864 1-332) (enzyme)
- stoichiometry N: 4
